Experiment in all cases: BLI; Octet RED96; client biotinylated and loaded on streptavidin sensors; Spy or Spy variant in solution at 0.25, 0.5, 1, 1.5 and 2 μM; 40 mM HEPES, 150 mM NaCl, pH 7.5; Kd calculated as koff/kon
Common to all, as to settings: both partners purified

In one test the target is T1, Spy D26E (UniProt P77754 24-161, D26E).
T1 construct: source: E. coli BL21 (DE3), purified (Ni-NTA, cation exchange, SEC); not shown: His6, N-terminal, cleaved; SUMO, N-terminal, cleaved
T1 sequence (looked up): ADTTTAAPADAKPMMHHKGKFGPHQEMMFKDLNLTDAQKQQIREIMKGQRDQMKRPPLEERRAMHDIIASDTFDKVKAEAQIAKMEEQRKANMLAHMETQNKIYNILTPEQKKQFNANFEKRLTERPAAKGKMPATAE

For another test, the target named is T2, Spy D26A (UniProt P77754 24-161, D26A).
T2 construct: source: E. coli BL21 (DE3), purified (Ni-NTA, cation exchange, SEC); not shown: His6, N-terminal, cleaved; SUMO, N-terminal, cleaved
T2 sequence (looked up): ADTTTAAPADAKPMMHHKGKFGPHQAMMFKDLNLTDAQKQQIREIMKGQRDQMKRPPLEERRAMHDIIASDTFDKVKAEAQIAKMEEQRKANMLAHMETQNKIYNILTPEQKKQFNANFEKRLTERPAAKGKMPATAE

The target in another test is T3, Spy D26K (UniProt P77754 24-161, D26K).
T3 construct: source: E. coli BL21 (DE3), purified (Ni-NTA, cation exchange, SEC); not shown: His6, N-terminal, cleaved; SUMO, N-terminal, cleaved
T3 sequence (looked up): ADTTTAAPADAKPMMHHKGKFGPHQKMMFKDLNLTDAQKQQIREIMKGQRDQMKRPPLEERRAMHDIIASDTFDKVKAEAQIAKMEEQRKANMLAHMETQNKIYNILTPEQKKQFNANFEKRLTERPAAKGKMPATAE

A further test deals with T4, Spy D26R (UniProt P77754 24-161, D26R).
T4 construct: source: E. coli BL21 (DE3), purified (Ni-NTA, cation exchange, SEC); not shown: His6, N-terminal, cleaved; SUMO, N-terminal, cleaved
T4 sequence (looked up): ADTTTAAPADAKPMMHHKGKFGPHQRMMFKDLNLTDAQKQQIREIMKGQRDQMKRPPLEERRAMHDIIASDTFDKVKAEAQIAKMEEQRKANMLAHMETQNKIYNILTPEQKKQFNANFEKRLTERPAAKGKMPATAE

B1: Im7 H40W L53A I54A (natural protein)
chain: MELKNSISDYTEAEFVQLLKEIEKENVAATDDVLDVLLEWFVKITEHPDGTDAAYYPSDNRDDSPEGIVKEIKEWRAANGKPGFKQG
modifications: biotin (EZ-link NHS-biotin, 1:1 molar ratio of biotin to protein)
notes: Im7 (colicin E7 immunity protein) with H40W L53A I54A; Spy was made with an N-terminal His6-SUMO tag that was cleaved; also called Im7AAW; partially folded client; source: purified by a similar procedure to Spy
As to B1, the Kd (as a rule, the constant that tells how readily two partners part at equilibrium) in the test with Spy D26E is 0.637 µM; in the test with Spy D26A, 0.274 µM; with Spy D26K, 0.257 µM; with Spy D26R it was 0.286 µM.
